Experimental data reported in PMC2922654 (The Journal of Cell Biology, 2010).
Numbering of substitutions follows the chain as printed.

T1: Sec31EE (residues 370–746, M540E and L544E) (yeast, UniProt P38968 370-746, M540E | L544E)
T1 sequence (looked up): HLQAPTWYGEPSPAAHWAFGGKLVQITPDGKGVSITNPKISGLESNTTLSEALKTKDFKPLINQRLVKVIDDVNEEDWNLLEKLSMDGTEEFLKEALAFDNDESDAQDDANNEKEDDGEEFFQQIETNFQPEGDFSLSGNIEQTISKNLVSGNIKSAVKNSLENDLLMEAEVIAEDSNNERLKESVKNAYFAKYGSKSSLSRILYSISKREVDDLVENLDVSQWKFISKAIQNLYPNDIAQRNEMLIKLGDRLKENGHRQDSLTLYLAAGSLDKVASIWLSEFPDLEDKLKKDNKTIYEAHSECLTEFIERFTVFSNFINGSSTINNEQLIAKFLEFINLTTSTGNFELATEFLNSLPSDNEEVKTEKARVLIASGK

B1: Sec16 central conserved domain (residues 984–1421) (domain or fragment, S. cerevisiae, UniProt P48415 984-1421, looked up)
chain: DNEALLRRQFPIFHWSAANKVVYAVPPIPDQSQYMISSSIVQEIKVTPIDQIIKPNDMLKSFPGPLGSAKLKKKDLTKWMETTIKSISENESSTDMTIWQLLEMKLNDKVNWKNISKLLYNSDELLMYLSQPFPNGDMIPNAYRLDINCQMRVLAFLQTGNHDEALRLALSKRDYAIALLVGSLMGKDRWSEVIQKYLYEGFTAGPNDQKELAHFLLLIFQVFVGNSKMAIKSFYTNNETSQWASENWKSIVAAVLINIPENNEDPLLIPPVVLEFLIEFGIFLTKKGLTAAASTLFIIGNVPLSNEPVMADSDVIFESIGNMNTFESILWDEIYEYIFSYDPKFKGFSSILPQKIYHASLLQEQGLNSLGTKYTDYLSSSVRKLPKKDILTINLTRELSEVASRLSESNTGWLAKPKLSSVWGQLDKSFNKYIGGDD
B2: Sec13 (natural protein, S. cerevisiae, UniProt Q04491 1-297, looked up)
chain: MVVIANAHNELIHDAVLDYYGKRLATCSSDKTIKIFEVEGETHKLIDTLTGHEGPVWRVDWAHPKFGTILASCSYDGKVLIWKEENGRWSQIAVHAVHSASVNSVQWAPHEYGPLLLVASSDGKVSVVEFKENGTTSPIIIDAHAIGVNSASWAPATIEEDGEHNGTKESRKFVTGGADNLVKIWKYNSDAQTYVLESTLEGHSDWVRDVAWSPTVLLRSYLASVSQDRTCIIWTQDNEQGPWKKTLLKEEKFPDVLWRASWSLSGNVLALSGGDNKVTLWKENLEGKWEPAGEVHQ
B3: Sec31 (residues 370–746) (domain or fragment, yeast, UniProt P38968 370-746, looked up)
chain: T1 sequence (looked up) with E171M, E175L
B4: Sec31ΔL (residues 370–746, deletion of residues 474–507) (domain or fragment, yeast, UniProt P38968 370-746, looked up)
chain: HLQAPTWYGEPSPAAHWAFGGKLVQITPDGKGVSITNPKISGLESNTTLSEALKTKDFKPLINQRLVKVIDDVNEEDWNLLEKLSMDGTEEFLKEALAFDNDESGNIEQTISKNLVSGNIKSAVKNSLENDLLMEAMVIALDSNNERLKESVKNAYFAKYGSKSSLSRILYSISKREVDDLVENLDVSQWKFISKAIQNLYPNDIAQRNEMLIKLGDRLKENGHRQDSLTLYLAAGSLDKVASIWLSEFPDLEDKLKKDNKTIYEAHSECLTEFIERFTVFSNFINGSSTINNEQLIAKFLEFINLTTSTGNFELATEFLNSLPSDNEEVKTEKARVLIASGK

Assays:
AUC = target: the molecule itself; assay: AUC
[1] = target: T1, Sec31EE (residues 370–746, M540E and …); assay: SEC
[2] = target: B1; assay: AUC
SEC = target: the molecule itself; assay: SEC
crystal structure = target: the molecule itself; assay: crystal structure

B1 was tested, and the “stoichiometry N” value (AUC) was 2 copies of Sec16 in the tetramer.

With B2 the “stoichiometry N” value [1] was 1 Sec13 per Sec31EE (printed 1:1) and the “stoichiometry N” value [2] was 1 Sec13 per Sec16 (printed 2:2).

B3: binds (SEC).

B4: binds (crystal structure).
